According to the supplement of paper PMC9732359:
± gives the uncertainty stated by the source.

Test: protein stability index of a GFP-peptide fusion (yeast GPS) (PSI 1-4); higher = more stable; sorted into four equal gates, so the index is relative within each strain
Method in brief: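 Yeast carrying a pooled library were grown to mid-log phase in leucine-free medium. Each library plasmid expresses Cherry and has a tiled 17-residue yeast protein peptide fused downstream of GFP. Cells were sorted into four equal gates by GFP/Cherry ratio, and plasmids from each gate were PCR-amplified, Illumina-sequenced and assigned to strains by barcode. Summing, across gates, the read frequency times the gate number gave each peptide's protein stability index.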

| Sequence | protein stability index (doa10∆) | protein stability index (pdr5∆) | protein stability index (san1∆) | protein stability index (ubr1∆) |
| --- | --- | --- | --- | --- |
| KSICFENCLNNDPEILK [SWI1] | 2.2 ± 0.087 | 2.69 ± 0.056 | 2.83 ± 0.068 | 2.7 ± 0.074 |
| ETVKLPRVSNQSNEDTF [RRI2] | 3.06 ± 0.13 | 3.22 ± 0.14 | 2.94 ± 0.19 | 3.24 ± 0.1 |
| FTNVLTKYSDVLGFLQL [YJL039C/NUP192] | 2.59 ± 0.072 | 2.07 ± 0.071 | 2.85 ± 0.053 | 2.01 ± 0.052 |
| RNILHNTVPQVTNFNST [SRB5] | 1.95 ± 0.056 | 2.87 ± 0.05 | 1.92 ± 0.052 | 2.44 ± 0.035 |
| IVEEDLEPFEASKETAE [FAS2] | 3.42 ± 0.18 | 3.21 ± 0.11 | 3.1 ± 0.087 | 3.25 ± 0.089 |
| AGGEAGEAEAEKEEEEA [RPP1A] | – | 3.47 ± 0.21 | 2.54 ± 0.22 | 3.5 ± 0.18 |
| IKKEEGKIDEAADILCE [RPN5] | 3.1 ± 0.096 | 2.69 ± 0.12 | 2.95 ± 0.11 | 2.52 ± 0.069 |
| ILDITDEELVSHFVSAV [RPP0] | 2.99 ± 0.12 | 2.88 ± 0.14 | 3.01 ± 0.13 | 3.05 ± 0.071 |
| FNKNLGKGPGCGFWQPA [PRP8] | 3.18 ± 0.16 | 3.25 ± 0.15 | 3.39 ± 0.14 | 3.54 ± 0.075 |
| FKHGPMSLINDAMVTRT [SMD2] | 2.9 ± 0.11 | 2.43 ± 0.09 | 2.76 ± 0.093 | 3.01 ± 0.085 |
| LLHERKLLNDLALENGE [NUT1] | 2.75 ± 0.06 | 2.66 ± 0.073 | 2.54 ± 0.083 | 2.84 ± 0.039 |
| DELCKLVTCEGSEEKAF [SRP54] | 2.92 ± 0.18 | 2.3 ± 0.18 | 1.95 ± 0.18 | 2.25 ± 0.13 |
| VAIDQDKITLHDEKTLA [SIR4] | 2.01 ± 0.097 | 2.22 ± 0.096 | 2.26 ± 0.17 | 2.71 ± 0.08 |
| SAISVTNVEDPLAKKQT [SIR2] | – | – | – | 3.2 ± 0.21 |
| IVRPAKGVATTREKVLE [RRP46] | 3.43 ± 0.16 | 2.83 ± 0.1 | 2.21 ± 0.12 | 3.09 ± 0.082 |
| SNELIEHFSHFGHIMED [YDL088C/ASM4] | 3.33 ± 0.12 | 3.09 ± 0.065 | 2.94 ± 0.053 | 2.99 ± 0.045 |
| RHKNKHIQGFPTLGERL [DSN1] | 3.41 ± 0.091 | 3.64 ± 0.13 | 3.37 ± 0.06 | 3.44 ± 0.076 |
| MGDNSQLDFTEFDEQYG [SNF2] | 3.31 ± 0.057 | 3.15 ± 0.067 | 3.31 ± 0.052 | 3.14 ± 0.045 |
| PSKDSFTKYKPARSSSL [YAR002W/NUP60] | 2.15 ± 0.043 | 2.59 ± 0.044 | 2.44 ± 0.053 | 2.77 ± 0.04 |
| KTKEAVAALKAVGAHSD [RPL4A] | 3.47 ± 0.087 | 3.51 ± 0.067 | 3.08 ± 0.096 | 3.38 ± 0.062 |
| REASKDNVDFILSNVDL [RPB3] | 3.49 ± 0.1 | 3.3 ± 0.085 | 3.38 ± 0.061 | 3.32 ± 0.073 |

| Sequence | protein stability index (doa10∆) | protein stability index (pdr5∆) | protein stability index (san1∆) | protein stability index (ubr1∆) |
| --- | --- | --- | --- | --- |
| KVSSASAAASESDVAKQ [RPL16B] | 2.93 ± 0.067 | 2.79 ± 0.055 | 2.04 ± 0.09 | 2.97 ± 0.065 |
| MFKLGNFESPVLKELSR [YLR018C/POM34] | – | 3.37 ± 0.23 | 2.85 ± 0.15 | 2.66 ± 0.16 |
| VLRINKMLSCAGADRLQ [RPL10] | 1.1 ± 0.092 | 1.28 ± 0.14 | 1.17 ± 0.21 | 1.11 ± 0.084 |
| ASVEIVFHDPDHSMILP [SMC3] | 2.26 ± 0.11 | 2.54 ± 0.12 | 2.98 ± 0.15 | 2.65 ± 0.079 |
| KNRSTIFWGIRLAKSTE [BRR2] | 3.04 ± 0.29 | 2.97 ± 0.16 | – | 2.95 ± 0.17 |
| DNEDSDNLFGETESSVS [SWI3] | 3.48 ± 0.14 | 3.07 ± 0.081 | – | 2.93 ± 0.085 |
| VKIMRDPAKSRTGPKAL [RPS3] | 3.35 ± 0.21 | 3.33 ± 0.12 | 3.06 ± 0.1 | 3.52 ± 0.11 |
| AYNKKSTISAREIQTAV [HTB1] | 2.5 ± 0.1 | 3.03 ± 0.089 | 2.98 ± 0.12 | 2.92 ± 0.13 |
| QKIRNSEGISEATREVF [ITC1] | 3.11 ± 0.2 | 3.47 ± 0.19 | 2.81 ± 0.15 | – |
| VRRGNRKRPVPKGATYG [RPL15A] | – | 3.27 ± 0.19 | 3.6 ± 0.18 | 3.44 ± 0.14 |
| KEYQCSAVIIDEFKDIT [YIL149C/MLP2] | 2.46 ± 0.065 | 2.75 ± 0.065 | 2.35 ± 0.055 | 2.88 ± 0.044 |
| LRDESLTVDNLSIAIVG [PRE5] | 2.65 ± 0.075 | 2.26 ± 0.066 | 2.5 ± 0.06 | 2.93 ± 0.051 |
| AFDKHMNLVLNECIEER [SMB1] | 2.06 ± 0.14 | 2.34 ± 0.19 | 2.68 ± 0.16 | 2.56 ± 0.051 |
| PALLRPGRLDRKIEFPS [RPT3] | 3.2 ± 0.11 | 3.08 ± 0.11 | 3.07 ± 0.11 | 3 ± 0.066 |
| LSSETGIKLALDPNLIT [SRB4] | 2.6 ± 0.052 | 3 ± 0.054 | 2.92 ± 0.056 | 2.51 ± 0.034 |
| YKDVSDLIRSESMLHLS [IRR1] | 2 ± 0.071 | 2.29 ± 0.054 | 2.11 ± 0.093 | 2.01 ± 0.043 |
| ASKSKKKFNMGKEFEAR [RPC53] | 3.33 ± 0.085 | 3.14 ± 0.12 | 3.27 ± 0.073 | 3.4 ± 0.081 |
| LLNLPPFQVSSFVKETK [SRB8] | 1.94 ± 0.039 | 1.88 ± 0.035 | 2.04 ± 0.05 | 2.02 ± 0.04 |
| KEVSSFLMGIFNSVVNL [MTR3] | 2.83 ± 0.057 | 2.91 ± 0.049 | 2.88 ± 0.056 | 3 ± 0.043 |
| TNSHLPAGKQVEISLVN [FAS1] | 3.48 ± 0.14 | 3.37 ± 0.13 | 3.36 ± 0.069 | 3.12 ± 0.084 |
| PTPAASAPAPAAAAPAP [FAS2] | 2.95 ± 0.1 | 3.05 ± 0.073 | 2.72 ± 0.074 | 3.1 ± 0.079 |
